Experimental data as given in patent US20170218389A1, “METHODS AND COMPOSITIONS FOR STOMATA REGULATION, PLANT IMMUNITY, AND DROUGHT TOLERANCE” (priority 2016, published 2017).

What was measured:
[1] = tested on: AtNHR1A; test: GTPase activity of AtNHR1A (GTP hydrolysis, phosphate release); format: biochemical, Arabidopsis
Description: FIG. 12A, FIG. 12B and FIG. 12C show NHR1A has GTPase activity and interacts with JAZ9 in Arabidopsis. A representative histogram is depicted showing that nhr1a is less sensitive to JA than Col-0, where roots were measured 7 days after seeds of different Arabidopsis lines were grown in MS medium plates with or without 30 μM of MeJA (FIG. 12A). Data represents three independent experiments with at least 10 seedlings per line. Bars represent the mean±SD. Asterisks indicate statistical significance (Student's t-test; p-value <0.05). A representative scatter-plot and histogram are depicted showing that the GTPase activity of NHR1A is reduced by JAZ9 as measured by the rate of phosphate (Pi) release when NHR1A protein (1 μM) was pre-loaded with GTP (1 mM) and incubated without (FIG. 12B) or with 0.25-1 μM of JAZ9 (FIG. 12C). Data represents three independent experiments. Bars represent the mean±SE.
To further examine the role of AtNHR1A, GTPase activity of AtNHR1A was assessed using purified protein in a fluorescence-based assay (Willard et al., 2005). […] This finding was quantified by measuring the phosphate (Pi) release, using the ENZchek® phosphate assay kit (Invitrogen®), after incubating NHR1A with different concentrations of JAZ9. […]
GTP binding and hydrolysis by AtNHR1A protein was measured using GTP-BODIPY-FL in real-time fluorescence assays in the presence of absence of JAZ9 protein. […]

[2] = biological target: T1, COI1 (Coronatine Insensitive 1) (Arabidopsis, UniProt O04197 1-592, limits assumed); test: FAST (fast agro-mediated seedling transformation) assay in Arabidopsis Col-0 and nhr1a seedlings
T1 construct: Expressed in Arabidopsis seedlings in the FAST assay; construct not described
T1 sequence (looked up): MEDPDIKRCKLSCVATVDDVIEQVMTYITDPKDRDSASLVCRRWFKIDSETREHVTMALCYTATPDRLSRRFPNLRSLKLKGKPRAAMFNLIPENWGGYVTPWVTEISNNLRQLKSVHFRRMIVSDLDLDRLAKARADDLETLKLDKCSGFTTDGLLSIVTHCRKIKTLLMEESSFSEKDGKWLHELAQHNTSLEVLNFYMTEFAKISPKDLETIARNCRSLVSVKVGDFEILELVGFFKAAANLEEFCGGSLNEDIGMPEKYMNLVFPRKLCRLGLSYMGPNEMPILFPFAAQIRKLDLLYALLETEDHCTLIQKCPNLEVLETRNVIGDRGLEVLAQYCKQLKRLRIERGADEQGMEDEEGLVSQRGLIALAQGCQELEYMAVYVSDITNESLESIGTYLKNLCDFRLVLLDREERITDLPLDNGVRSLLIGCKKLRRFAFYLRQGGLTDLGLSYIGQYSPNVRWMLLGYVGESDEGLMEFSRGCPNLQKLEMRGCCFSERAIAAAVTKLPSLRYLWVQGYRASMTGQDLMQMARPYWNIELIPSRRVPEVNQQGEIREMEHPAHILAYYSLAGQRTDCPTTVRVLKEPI
Excerpt: Several JAZ proteins, such as JAZ1, JAZ2, JAZ3, JAZ6, JAZ9 and JAZ10, have been known to directly interact with COI1 in Arabidopsis (Chini et al., 2009; Melotto et al., 2008; Thines et al., 2007; Yan et al., 2009; Zhou et al., 2013). As shown above, NHR1A directly interacts with JAZ1, JAZ3, JAZ4, JAZ5, JAZ9 and JAZ12. Without being limited by theory, the present inventors hypothesize that the function of JAZ9 can be modified by binding NHR1A, and this may affect COI1-mediated signaling for stomatal closure. The fast agro-mediated seedling transformation (FAST) assay was used in Col-0 and nhr1a to investigate whether NHR1A was required for JAZ9-COI1 interaction.

B1: Jasmonate-Zim-Domain Protein 9 (JAZ9, At1g70700), full-length (other, Arabidopsis, UniProt Q8W4J8 1-267, looked up)
chain: MERDFLGLSDKQYLSNNVKHEVNDDAVEERGLSTKAAREWGKSKVFATSSFMPSSDFQEAKAFPGAYQWGSVSAANVFRRCQFGGAFQNATPLLLGGSVPLPTHPSLVPRVASSGSSPQLTIFYGGTISVFNDISPDKAQAIMLCAGNGLKGETGDSKPVREAERMYGKQIHNTAATSSSSATHTDNFSRCRDTPVAATNAMSMIESFNAAPRNMIPSVPQARKASLARFLEKRKERLMSAMPYKKMLLDLSTGESSGMNYSSTSPT
notes: GAL4 domain fusion in yeast two-hybrid, EYFP-half fusion in BiFC/FAST; the construct of the JAZ9 protein added to the GTPase assays is not described
[1]; 0.75 μM and 1 μM of JAZ9, NHR1A 1 μM pre-loaded with GTP 1 mM
  Reduction in phosphate release compared with AtNHR1A without JAZ9: 20%
[1]; in the presence of JAZ9
  Rate of GTP hydrolysis of AtNHR1A: significantly decreased
[2]
  binding result: binds
